Assay results as given in patent US20260144854A1 (UNIVERSITY OF CHICAGO, published 2026).

How the values were obtained:
[1] = target: T1, human neutrophil elastase (ELANE)
T1 chain: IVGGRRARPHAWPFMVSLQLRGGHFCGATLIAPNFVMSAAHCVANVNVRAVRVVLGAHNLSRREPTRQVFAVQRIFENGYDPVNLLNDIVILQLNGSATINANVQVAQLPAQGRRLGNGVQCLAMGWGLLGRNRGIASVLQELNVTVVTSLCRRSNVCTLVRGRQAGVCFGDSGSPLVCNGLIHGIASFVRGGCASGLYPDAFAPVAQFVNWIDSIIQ

[2] = target: T2, human neutrophil elastase (ELANE) (human, UniProt P08246 30-247); assay: from the inventors' studies of ECP as allosteric activator of ELANE (chromogenic substrate kinetics, FIG. 7); method of the KD not stated
T2 construct: Native protein: in human PMN conditioned media in the co-immunoprecipitation, purified native ELANE (Abcam) in the enzyme and cleavage assays; also called human ELANE
T2 sequence: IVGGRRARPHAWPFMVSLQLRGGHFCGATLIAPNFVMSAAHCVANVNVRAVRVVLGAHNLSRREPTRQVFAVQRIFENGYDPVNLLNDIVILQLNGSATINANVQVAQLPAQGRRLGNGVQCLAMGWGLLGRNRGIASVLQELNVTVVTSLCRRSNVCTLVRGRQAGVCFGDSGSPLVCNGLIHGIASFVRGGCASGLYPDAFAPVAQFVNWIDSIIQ

[3] = target: T3, C-terminal domain of CD95 (amino acids 157-320; C-CD95), P25445
T3 chain: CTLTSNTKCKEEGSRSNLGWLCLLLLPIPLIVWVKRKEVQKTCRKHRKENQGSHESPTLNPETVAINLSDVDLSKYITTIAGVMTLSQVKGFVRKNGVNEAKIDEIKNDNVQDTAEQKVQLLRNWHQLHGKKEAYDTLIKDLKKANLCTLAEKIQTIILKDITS

[4] = target: alpha-1-anti-trypsin (A1AT), P01009
[5] = target: T4, full length recombinant CD95 protein (FL-CD95), P25445
T4 chain: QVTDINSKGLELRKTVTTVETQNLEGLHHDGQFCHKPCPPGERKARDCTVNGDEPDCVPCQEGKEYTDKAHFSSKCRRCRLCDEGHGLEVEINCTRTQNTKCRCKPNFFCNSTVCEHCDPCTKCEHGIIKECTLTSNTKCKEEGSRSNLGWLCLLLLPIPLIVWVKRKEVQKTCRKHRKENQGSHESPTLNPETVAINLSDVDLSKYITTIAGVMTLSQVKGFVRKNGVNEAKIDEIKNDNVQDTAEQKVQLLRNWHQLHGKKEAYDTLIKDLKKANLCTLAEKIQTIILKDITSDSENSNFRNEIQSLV

alpha-1-anti-trypsin (A1AT), P01009, sequence (P01009 whole entry, looked up): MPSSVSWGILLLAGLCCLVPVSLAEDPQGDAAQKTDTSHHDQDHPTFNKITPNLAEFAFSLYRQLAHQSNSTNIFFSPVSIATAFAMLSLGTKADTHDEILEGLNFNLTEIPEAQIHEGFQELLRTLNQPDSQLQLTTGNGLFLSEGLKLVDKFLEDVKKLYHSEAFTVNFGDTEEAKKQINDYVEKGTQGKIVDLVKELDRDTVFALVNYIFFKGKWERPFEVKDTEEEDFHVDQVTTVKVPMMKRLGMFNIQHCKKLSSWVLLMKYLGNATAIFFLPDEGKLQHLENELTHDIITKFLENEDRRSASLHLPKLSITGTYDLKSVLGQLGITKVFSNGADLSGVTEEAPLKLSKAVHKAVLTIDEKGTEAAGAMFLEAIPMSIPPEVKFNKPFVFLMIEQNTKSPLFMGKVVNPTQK

| Binder | degradation of purified CD95 [5] | other results |
| --- | --- | --- |
| eosinophil cationic protein (ECP) (enzyme, also called ribonuclease 3) RPPQFTRAQWFAIQHISLNPPRCTIAMRAINNYRWRCKNQNTFLRTTFANVVNVCGNQSIRCPHNRTLNNCHRSRFRVPLLHCDLINPGAQNISNCTYADRPGRRFYVVACDNRDPRDSPRYPVVPVHLDTTI |  | kcat of ELANE for its substrate (chromogenic substrate activity assay) [1]: increases kcat for its substrate by 12-fold without altering KM; Kd [2]: ~20 nM |
| human neutrophil elastase (ELANE) (protein) IVGGRRARPHAWPFMVSLQLRGGHFCGATLIAPNFVMSAAHCVANVNVRAVRVVLGAHNLSRREPTRQVFAVQRIFENGYDPVNLLNDIVILQLNGSATINANVQVAQLPAQGRRLGNGVQCLAMGWGLLGRNRGIASVLQELNVTVVTSLCRRSNVCTLVRGRQAGVCFGDSGSPLVCNGLIHGIASFVRGGCASGLYPDAFAPVAQFVNWIDSIIQ | ELANE degrades the C-terminal domain of purified CD95 | degradation by SDS-PAGE followed by coomassie blue staining [3]: ELANE preferentially cleaves the C-terminal domain of CD95; ELANE catalytic activity (chromogenic substrate assay) [4]: loss of ELANE catalytic activity was confirmed by a chromogenic substrate assay |
| cathepsin G (CTSG) (protein) IIGGRESRPHSRPYMAYLQIQSPAGQSRCGGFLVREDFVLTAAHCWGSNINVTLGAHNIQRRENTQQHITARRAIRHPQYNQRTIQNDIMLLQLSRRVRRNRNVNPVALPRAQEGLRPGTLCTVAGWGRVSMRRGTDTLREVQLRVQRDRQCLRIFGSYDPRRQICVGDRRERKAAFKGDSGGPLLCNNVAHGIVSYGKSSGVPPEVFTRVSSFLPWIRTTMRS | cleaved purified CD95 with an identical degradation pattern to ELANE |  |
| proteinase 3 (PRTN3) (protein) IVGGHEAQPHSRPYMASLQMRGNPGSHFCGGTLIHPSFVLTAAHCLRDIPQRLVNVVLGAHNVRTQEPTQQHFSVAQVFLNNYDAENKLNDVLLIQLSSPANLSASVATVQLPQQDQPVPHGTQCLAMGWGRVGAHDPPAQVLQELNVTVVTFFCRPHNICTFVPRRKAGICFGDSGGPLICDGIIQGIDSFVIWGCATRLFPDFFTRVALYVDWIRSTLR | cleaved purified CD95 with an identical degradation pattern to ELANE |  |
| murine neutrophil elastase (mELANE) (protein) IVGGRPARPHAWPFMASLQRRGGHFCGATLIARNFVMSAAHCVNGLNFRSVQVVLGAHDLRRQERTRQTFSVQRIFENGFDPSQLLNDIVIIQLNGSATINANVQVAQLPAQGQGVGDRTPCLAMGWGRLGTNRPSPSVLQELNVTVVTNMCRRRVNVCTLVPRRQAGICFGDSGGPLVCNNLVQGIDSFIRGGCGSGLYPDAFAPVAEFADWINSIIRSHNDHLLTHPKDREGRTN | cleaved purified CD95 with an identical degradation pattern to ELANE |  |
